Test results as given in patent US7176008B2, “Process for producing activated thrombin-activatable fibrinolysis inhibitor” (Merck & Co., Inc., priority 2002, dated 2007).

Assay: Stability of TAFIa activity
Parameters: species or system human
Protocol: Pooled human plasma (30–40 mL) was diluted 10-fold with HBE buffer (10 mM HEPES, pH 7.4, 5 mM ε-aminocaproic acid). 5 mM of the reversible inhibitor ε-aminocaproic acid was added to maintain TAFIa stability during the isolation.
Thrombin, thrombomodulin and calcium chloride (final concentrations 5 nM, 2 nM and 5 mM, respectively) were added and the solution was shaken at room temperature for 30 min. The formation of serum was quenched with 10 μM FPRCK and centrifuged at 20,000×g for 30 min at 4° C. Unless otherwise mentioned, all isolation steps were performed at 4° C. The fibrin-free solution was loaded onto a heparin-sepharose column (2.5×3 cm) pre-equilibrated with HBE buffer.
In the presence of 5 mM ε-aminocaproic acid, TAFIa activity in serum reached a maximum at ˜5 min and was preserved >30 min at 37° C. Initial studies for formation of serum by simply adding thrombin and calcium only activated a limited amount of TAFI zymogen (<<0.5%) as determined with western blotting. Dilution of the plasma for serum preparation increased TAFI activation. A 4–5-fold increase in TAFI activation was observed if the plasma were diluted 10–20-fold. […] A maximal increase (30–35-fold) was obtained with 2 nM thrombomodulin, consistent with the fact that thrombomodulin is the cofactor for thrombin-mediated TAFI activation. […]

B1: TAFIa: activated thrombin-activatable fibrinolysis inhibitor, a basic carboxypeptidase purified from serum (protein)
chain: ASASYYEQYHSLNEIYSWIEFITERHPDMLTKIHIGSSFEKYPLYVLKVSGKEQAAKNAIWIDCGIHAREWISPAFCLWFIGHITQFYGIIGQYTNLLRLVDFYVMPVVNVDGYDYSWKKNRMWRKNRSFYANNHCIGTDLNRNFASKHWCEEGASSSSCSETYCGLYPESEPEVKAVASFLRRNINQIKAYISMHSYSQHIVFPYSYTRSKSKDHEELSLVASEAVRAIEKISKNTRYTHGHGSETLYLAPGGGDDWIYDLGIKYSFTIELRDTGTYGFLLPERYIKPTCREAFAAVSKIAWHVIRNV
time TAFIa activity was maintained (4° C., ε-aminocaproic acid present during isolation): more than 3 days | time TAFIa activity in serum was preserved (37° C., in the presence of 5 mM ε-aminocaproic acid): > 30 min
